Experimental data reported in US20210388087A1 (Chugai, published 2021).

B1: H183/L072 VL T97M (antibody, name in Kabat numbering, V domains shown)
VH: QVQLVESGGGLVQPGRSLRLSCAASGFTFSNAWMHWVRQAPGKGLEWVAQIKDKGNAYAAYYAPSVKGRFTISRDDSKNSIYLQMNSLKTEDTAVYYCHYVHYASASTVLPAFGVDAWGQGTTVTVSS
VL: DIVMTQSPLSLPVTPGEPASISCQASQELVHMNRNTYLHWYQQKPGQAPRLLIYKVSNRFPGVPDRFSGSGSGTDFTLKISRVEAEDVGVYYCAQGTSVPFMFGQGTKLEIK
notes: Dual-Ig
B2: H183/L072 VL V27cF (antibody, name in Kabat numbering, V domains shown)
VH: QVQLVESGGGLVQPGRSLRLSCAASGFTFSNAWMHWVRQAPGKGLEWVAQIKDKGNAYAAYYAPSVKGRFTISRDDSKNSIYLQMNSLKTEDTAVYYCHYVHYASASTVLPAFGVDAWGQGTTVTVSS
VL: DIVMTQSPLSLPVTPGEPASISCQASQELFHMNRNTYLHWYQQKPGQAPRLLIYKVSNRFPGVPDRFSGSGSGTDFTLKISRVEAEDVGVYYCAQGTSVPFTFGQGTKLEIK
notes: Dual-Ig
B3: H183/L072 VL V27cI (antibody, name in Kabat numbering, V domains shown)
VH: QVQLVESGGGLVQPGRSLRLSCAASGFTFSNAWMHWVRQAPGKGLEWVAQIKDKGNAYAAYYAPSVKGRFTISRDDSKNSIYLQMNSLKTEDTAVYYCHYVHYASASTVLPAFGVDAWGQGTTVTVSS
VL: DIVMTQSPLSLPVTPGEPASISCQASQELIHMNRNTYLHWYQQKPGQAPRLLIYKVSNRFPGVPDRFSGSGSGTDFTLKISRVEAEDVGVYYCAQGTSVPFTFGQGTKLEIK
notes: Dual-Ig
B4: H183/L072 VL T97P (antibody, name in Kabat numbering, V domains shown)
VH: QVQLVESGGGLVQPGRSLRLSCAASGFTFSNAWMHWVRQAPGKGLEWVAQIKDKGNAYAAYYAPSVKGRFTISRDDSKNSIYLQMNSLKTEDTAVYYCHYVHYASASTVLPAFGVDAWGQGTTVTVSS
VL: DIVMTQSPLSLPVTPGEPASISCQASQELVHMNRNTYLHWYQQKPGQAPRLLIYKVSNRFPGVPDRFSGSGSGTDFTLKISRVEAEDVGVYYCAQGTSVPFPFGQGTKLEIK
notes: Dual-Ig
B5: H183/L072 VL V27cN (antibody, name in Kabat numbering, V domains shown)
VH: QVQLVESGGGLVQPGRSLRLSCAASGFTFSNAWMHWVRQAPGKGLEWVAQIKDKGNAYAAYYAPSVKGRFTISRDDSKNSIYLQMNSLKTEDTAVYYCHYVHYASASTVLPAFGVDAWGQGTTVTVSS
VL: DIVMTQSPLSLPVTPGEPASISCQASQELNHMNRNTYLHWYQQKPGQAPRLLIYKVSNRFPGVPDRFSGSGSGTDFTLKISRVEAEDVGVYYCAQGTSVPFTFGQGTKLEIK
notes: Dual-Ig
B6: H183/L072 VL V27cA (antibody, name in Kabat numbering, V domains shown)
VH: QVQLVESGGGLVQPGRSLRLSCAASGFTFSNAWMHWVRQAPGKGLEWVAQIKDKGNAYAAYYAPSVKGRFTISRDDSKNSIYLQMNSLKTEDTAVYYCHYVHYASASTVLPAFGVDAWGQGTTVTVSS
VL: DIVMTQSPLSLPVTPGEPASISCQASQELAHMNRNTYLHWYQQKPGQAPRLLIYKVSNRFPGVPDRFSGSGSGTDFTLKISRVEAEDVGVYYCAQGTSVPFTFGQGTKLEIK
notes: Dual-Ig
B7: H183/L072 VL T97S (antibody, name in Kabat numbering, V domains shown)
VH: QVQLVESGGGLVQPGRSLRLSCAASGFTFSNAWMHWVRQAPGKGLEWVAQIKDKGNAYAAYYAPSVKGRFTISRDDSKNSIYLQMNSLKTEDTAVYYCHYVHYASASTVLPAFGVDAWGQGTTVTVSS
VL: DIVMTQSPLSLPVTPGEPASISCQASQELVHMNRNTYLHWYQQKPGQAPRLLIYKVSNRFPGVPDRFSGSGSGTDFTLKISRVEAEDVGVYYCAQGTSVPFSFGQGTKLEIK
notes: Dual-Ig
B8: H183/L072 VL T97W (antibody, name in Kabat numbering, V domains shown)
VH: QVQLVESGGGLVQPGRSLRLSCAASGFTFSNAWMHWVRQAPGKGLEWVAQIKDKGNAYAAYYAPSVKGRFTISRDDSKNSIYLQMNSLKTEDTAVYYCHYVHYASASTVLPAFGVDAWGQGTTVTVSS
VL: DIVMTQSPLSLPVTPGEPASISCQASQELVHMNRNTYLHWYQQKPGQAPRLLIYKVSNRFPGVPDRFSGSGSGTDFTLKISRVEAEDVGVYYCAQGTSVPFWFGQGTKLEIK
notes: Dual-Ig
B9: H183/L072 VL T97Q (antibody, name in Kabat numbering, V domains shown)
VH: QVQLVESGGGLVQPGRSLRLSCAASGFTFSNAWMHWVRQAPGKGLEWVAQIKDKGNAYAAYYAPSVKGRFTISRDDSKNSIYLQMNSLKTEDTAVYYCHYVHYASASTVLPAFGVDAWGQGTTVTVSS
VL: DIVMTQSPLSLPVTPGEPASISCQASQELVHMNRNTYLHWYQQKPGQAPRLLIYKVSNRFPGVPDRFSGSGSGTDFTLKISRVEAEDVGVYYCAQGTSVPFQFGQGTKLEIK
notes: Dual-Ig
B10: H183/L072 VL V27cD (antibody, name in Kabat numbering, V domains shown)
VH: QVQLVESGGGLVQPGRSLRLSCAASGFTFSNAWMHWVRQAPGKGLEWVAQIKDKGNAYAAYYAPSVKGRFTISRDDSKNSIYLQMNSLKTEDTAVYYCHYVHYASASTVLPAFGVDAWGQGTTVTVSS
VL: DIVMTQSPLSLPVTPGEPASISCQASQELDHMNRNTYLHWYQQKPGQAPRLLIYKVSNRFPGVPDRFSGSGSGTDFTLKISRVEAEDVGVYYCAQGTSVPFTFGQGTKLEIK
notes: Dual-Ig
B11: H183/L072 VL T97V (antibody, name in Kabat numbering, V domains shown)
VH: QVQLVESGGGLVQPGRSLRLSCAASGFTFSNAWMHWVRQAPGKGLEWVAQIKDKGNAYAAYYAPSVKGRFTISRDDSKNSIYLQMNSLKTEDTAVYYCHYVHYASASTVLPAFGVDAWGQGTTVTVSS
VL: DIVMTQSPLSLPVTPGEPASISCQASQELVHMNRNTYLHWYQQKPGQAPRLLIYKVSNRFPGVPDRFSGSGSGTDFTLKISRVEAEDVGVYYCAQGTSVPFVFGQGTKLEIK
notes: Dual-Ig
B12: H183/L072 VL T97N (antibody, name in Kabat numbering, V domains shown)
VH: QVQLVESGGGLVQPGRSLRLSCAASGFTFSNAWMHWVRQAPGKGLEWVAQIKDKGNAYAAYYAPSVKGRFTISRDDSKNSIYLQMNSLKTEDTAVYYCHYVHYASASTVLPAFGVDAWGQGTTVTVSS
VL: DIVMTQSPLSLPVTPGEPASISCQASQELVHMNRNTYLHWYQQKPGQAPRLLIYKVSNRFPGVPDRFSGSGSGTDFTLKISRVEAEDVGVYYCAQGTSVPFNFGQGTKLEIK
notes: Dual-Ig
B13: H183/L072 VL V27cH (antibody, name in Kabat numbering, V domains shown)
VH: QVQLVESGGGLVQPGRSLRLSCAASGFTFSNAWMHWVRQAPGKGLEWVAQIKDKGNAYAAYYAPSVKGRFTISRDDSKNSIYLQMNSLKTEDTAVYYCHYVHYASASTVLPAFGVDAWGQGTTVTVSS
VL: DIVMTQSPLSLPVTPGEPASISCQASQELHHMNRNTYLHWYQQKPGQAPRLLIYKVSNRFPGVPDRFSGSGSGTDFTLKISRVEAEDVGVYYCAQGTSVPFTFGQGTKLEIK
notes: Dual-Ig
B14: H183/L072 VL V27cM (antibody, name in Kabat numbering, V domains shown)
VH: QVQLVESGGGLVQPGRSLRLSCAASGFTFSNAWMHWVRQAPGKGLEWVAQIKDKGNAYAAYYAPSVKGRFTISRDDSKNSIYLQMNSLKTEDTAVYYCHYVHYASASTVLPAFGVDAWGQGTTVTVSS
VL: DIVMTQSPLSLPVTPGEPASISCQASQELMHMNRNTYLHWYQQKPGQAPRLLIYKVSNRFPGVPDRFSGSGSGTDFTLKISRVEAEDVGVYYCAQGTSVPFTFGQGTKLEIK
notes: Dual-Ig
B15: H183/L072 VL V27cL (antibody, name in Kabat numbering, V domains shown)
VH: QVQLVESGGGLVQPGRSLRLSCAASGFTFSNAWMHWVRQAPGKGLEWVAQIKDKGNAYAAYYAPSVKGRFTISRDDSKNSIYLQMNSLKTEDTAVYYCHYVHYASASTVLPAFGVDAWGQGTTVTVSS
VL: DIVMTQSPLSLPVTPGEPASISCQASQELLHMNRNTYLHWYQQKPGQAPRLLIYKVSNRFPGVPDRFSGSGSGTDFTLKISRVEAEDVGVYYCAQGTSVPFTFGQGTKLEIK
notes: Dual-Ig
B16: H183/L072 VL V27cK (antibody, name in Kabat numbering, V domains shown)
VH: QVQLVESGGGLVQPGRSLRLSCAASGFTFSNAWMHWVRQAPGKGLEWVAQIKDKGNAYAAYYAPSVKGRFTISRDDSKNSIYLQMNSLKTEDTAVYYCHYVHYASASTVLPAFGVDAWGQGTTVTVSS
VL: DIVMTQSPLSLPVTPGEPASISCQASQELKHMNRNTYLHWYQQKPGQAPRLLIYKVSNRFPGVPDRFSGSGSGTDFTLKISRVEAEDVGVYYCAQGTSVPFTFGQGTKLEIK
notes: Dual-Ig
B17: H183/L072 VL V27cE (antibody, name in Kabat numbering, V domains shown)
VH: QVQLVESGGGLVQPGRSLRLSCAASGFTFSNAWMHWVRQAPGKGLEWVAQIKDKGNAYAAYYAPSVKGRFTISRDDSKNSIYLQMNSLKTEDTAVYYCHYVHYASASTVLPAFGVDAWGQGTTVTVSS
VL: DIVMTQSPLSLPVTPGEPASISCQASQELEHMNRNTYLHWYQQKPGQAPRLLIYKVSNRFPGVPDRFSGSGSGTDFTLKISRVEAEDVGVYYCAQGTSVPFTFGQGTKLEIK
notes: Dual-Ig
B18: H183/L072 VL V27cG (antibody, name in Kabat numbering, V domains shown)
VH: QVQLVESGGGLVQPGRSLRLSCAASGFTFSNAWMHWVRQAPGKGLEWVAQIKDKGNAYAAYYAPSVKGRFTISRDDSKNSIYLQMNSLKTEDTAVYYCHYVHYASASTVLPAFGVDAWGQGTTVTVSS
VL: DIVMTQSPLSLPVTPGEPASISCQASQELGHMNRNTYLHWYQQKPGQAPRLLIYKVSNRFPGVPDRFSGSGSGTDFTLKISRVEAEDVGVYYCAQGTSVPFTFGQGTKLEIK
notes: Dual-Ig
B19: H183/L072 VL T97R (antibody, name in Kabat numbering, V domains shown)
VH: QVQLVESGGGLVQPGRSLRLSCAASGFTFSNAWMHWVRQAPGKGLEWVAQIKDKGNAYAAYYAPSVKGRFTISRDDSKNSIYLQMNSLKTEDTAVYYCHYVHYASASTVLPAFGVDAWGQGTTVTVSS
VL: DIVMTQSPLSLPVTPGEPASISCQASQELVHMNRNTYLHWYQQKPGQAPRLLIYKVSNRFPGVPDRFSGSGSGTDFTLKISRVEAEDVGVYYCAQGTSVPFRFGQGTKLEIK
notes: Dual-Ig
B20: H183/L072 VL V27cP (antibody, name in Kabat numbering, V domains shown)
VH: QVQLVESGGGLVQPGRSLRLSCAASGFTFSNAWMHWVRQAPGKGLEWVAQIKDKGNAYAAYYAPSVKGRFTISRDDSKNSIYLQMNSLKTEDTAVYYCHYVHYASASTVLPAFGVDAWGQGTTVTVSS
VL: DIVMTQSPLSLPVTPGEPASISCQASQELPHMNRNTYLHWYQQKPGQAPRLLIYKVSNRFPGVPDRFSGSGSGTDFTLKISRVEAEDVGVYYCAQGTSVPFTFGQGTKLEIK
notes: Dual-Ig

molecular target: T1, Human CD137 ECD (human); experiment: Biacore SPR, vs parent H183/L072
T1 construct: entry includes C-terminal His-tag and biotin acceptor peptide; also called human CD137 extracellular domain; 4-1BB
T1 sequence (chain, as listed by the source limits assumed): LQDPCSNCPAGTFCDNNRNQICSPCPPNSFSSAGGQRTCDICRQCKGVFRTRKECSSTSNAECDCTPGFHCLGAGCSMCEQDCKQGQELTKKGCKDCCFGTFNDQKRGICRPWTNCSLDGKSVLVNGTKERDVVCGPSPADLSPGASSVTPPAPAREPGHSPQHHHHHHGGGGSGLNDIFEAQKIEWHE

Row | Binder | fold change of affinity [fold]
1 | B1 | 1.1
2 | B2 | 0.6
3 | B3 | 1
4 | B4 | 0
5 | B5 | 0.5
6 | B6 | 0.5
7 | B7 | 0.8
8 | B8 | 0.1
9 | B9 | 0.7
10 | B10 | 0.3
11 | B11 | 1
12 | B12 | 0.5
13 | B13 | 0.6
14 | B14 | 0.9
15 | B15 | 0.8
16 | B16 | 0.9
17 | B17 | 0.7
18 | B18 | 0.4
19 | B19 | 0.9
20 | B20 | 0.5
